Target: HIVSF162 Env on pseudotyped virions (HIV-1 SF162) (UniProt P19550)
Experiment: cell-based or functional assay

Substance: human Mab 697D (antibody)
- ND50: 80 µg/mL
